From patent US20160215061A1 (Merck Sharp & Dohme, published 2016)

Columns and labels:
[1] = biological target: T1, recombinant human FcγRIIB expressed in CHO cells (human, UniProt P31994 43-217, limits assumed); test: SPR (Biacore); capture sample on chip, rhFcgRIIB (CHO) injected; reference Herceptin
T1 construct: Soluble analyte injected in SPR; also called human FcgRIIB; rhFcgRIIB (CHO)
T1 sequence (looked up): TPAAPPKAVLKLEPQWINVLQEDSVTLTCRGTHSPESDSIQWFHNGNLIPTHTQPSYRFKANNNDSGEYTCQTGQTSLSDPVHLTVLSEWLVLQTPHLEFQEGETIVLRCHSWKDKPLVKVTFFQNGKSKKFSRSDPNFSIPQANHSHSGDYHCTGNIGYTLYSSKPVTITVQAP
Description: (§1) Purified IgGs were analyzed by SDS-PAGE for expression and assayed for binding to human or mouse FcγRIIB. […] The CMS chip (GE Healthcare, Wauwatusa, Wis.) was immobilized on all flow cells with mouse anti-human IgG (Fc specific) (obtained from GE Healthcare, Wauwatusa, Wis.) according to the Biacore Human Antibody Capture Kit to ˜7000 RU. Purified full-length IgG1 variants containing mutations in Fc region (described in Example 1) were captured on the chip through immobilized mouse anti-human IgG (obtained from GE Healthcare, Wauwatusa, Wis.) followed by injection of human or mouse FcγRIIB. Human FcγRIIB was expressed in Chinese Hamster Ovary cells (Merck, Whithouse Station, N.J.) and mouse FcγRIIB was expressed in NS0 murine myeloma (R&D Systems, Minneapolis, Minn.)). Each flowcell was regenerated between each analyte injection with 3M MgCl for 40 s at 10 μl/min. Data was analyzed with Biacore T100 Evaluation Software using the 1/1 binding model for KD values, where reported. Amino acid compositions of novel variants were identified by DNA sequencing. Clones were tabulated based on response units (RU's) registered following receptor binding.
(§2) Resulting clones were fermented in 1 L bioreactor vessels to produce each of the described variants. Culture supernatants were passed over protein A coated beads to capture secreted Fc fragments. Purified Fc fragments were eluted at pH 3.0 into tubes containing 1M Tris (pH 8.0). Purified Fc fragments were analyzed by surface plasmon resonance (SPR) on Biacore for binding to human and mouse FcγRIIB as described in Example 2.

[2] = biological target: T2, recombinant mouse FcγRIIB expressed in NS0 cells (mouse, UniProt P08101 40-207, limits assumed); test: SPR (Biacore); capture sample on chip, rmFcgRIIB (NSO) injected; reference Herceptin
T2 construct: Bought from R&D Systems; soluble analyte injected in SPR; also called rmFcgRIIB (NSO); CD32-B
T2 sequence (looked up): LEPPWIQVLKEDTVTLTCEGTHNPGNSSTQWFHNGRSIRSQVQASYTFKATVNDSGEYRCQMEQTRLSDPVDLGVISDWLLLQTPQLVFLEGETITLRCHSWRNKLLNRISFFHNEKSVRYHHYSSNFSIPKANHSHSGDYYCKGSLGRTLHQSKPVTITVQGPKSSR
Description: as §1, §2

[3] = biological target: T1, recombinant human FcγRIIB expressed in …; test: SPR (Biacore), 1/1 binding model; reference Herceptin

B1: 183-D4/F241A Fc (SEQ ID NO13) (other)
chain: AEPKSCDKTHTCPPCPAPELLGGPSVALFPPKPKDTLMISRTPEVTCVVVDVSHEDPEVKFNWYVDGVEVHNAKTKPREEQYNSTYRVVSVLTVLHQDWLNGEEYKCKVSNEALPAPIEKTISKTKGRPREPQVYTLPPSRDELTKNQVSLTCLVKGFYPSDIAVEWESNGQPENNYKTTPPVLDSDGSFFLYSKLTVDRSRWQQGNVFSCSVMHEALHNHYTQKSLSLSPGK
notes: Human IgG1 Fc fragment with F241A, K317E, K326E, A339T, Q342R, K414R (EU)
[1]
  Fold Increase in RU vs WT IgG1: 4.7 fold
[2]
  Fold Increase in RU vs WT IgG1: 5 fold

B2: K317E/K326E/K414R Fc (SEQ ID NO11) (other)
chain: AEPKSCDKTHTCPPCPAPELLGGPSVFLFPPKPKDTLMISRTPEVTCVVVDVSHEDPEVKFNWYVDGVEVHNAKTKPREEQYNSTYRVVSVLTVLHQDWLNGEEYKCKVSNEALPAPIEKTISKAKGQPREPQVYTLPPSRDELTKNQVSLTCLVKGFYPSDIAVEWESNGQPENNYKTTPPVLDSDGSFFLYSKLTVDRSRWQQGNVFSCSVMHEALHNHYTQKSLSLSPGK
notes: Human IgG1 Fc fragment, made in glycoengineered Pichia pastoris
[2]
  Fold Increase in RU vs WT IgG1: 5.2 fold

B3: 183-D4/F241A/L328F Fc (SEQ ID NO12) (other)
chain: AEPKSCDKTHTCPPCPAPELLGGPSVALFPPKPKDTLMISRTPEVTCVVVDVSHEDPEVKFNWYVDGVEVHNAKTKPREEQYNSTYRVVSVLTVLHQDWLNGEEYKCKVSNEAFPAPIEKTISKTKGRPREPQVYTLPPSRDELTKNQVSLTCLVKGFYPSDIAVEWESNGQPENNYKTTPPVLDSDGSFFLYSKLTVDRSRWQQGNVFSCSVMHEALHNHYTQKSLSLSPGK
notes: Human IgG1 Fc fragment with F241A, K317E, K326E, L328F, A339T, Q342R, K414R (EU)
[1]
  Fold Increase in RU vs WT IgG1: 1.2 fold
[2]
  Fold Increase in RU vs WT IgG1: 1.3 fold

B4: F243A/V264A/S267E/L328F Fc (SEQ ID NO8) (other)
chain: AEPKSCDKTHTCPPCPAPELLGGPSVFLAPPKPKDTLMISRTPEVTCVVADVEHEDPEVKFNWYVDGVEVHNAKTKPREEQYNSTYRVVSVLTVLHQDWLNGKEYKCKVSNKAFPAPIEKTISKAKGQPREPQVYTLPPSREEMTKNQVSLTCLVKGFYPSDIAVEWESNGQPENNYKTTPPVLDSDGSFFLYSKLTVDKSRWQQGNVFSCSVMHEALHNHYTQKSLSLSPG
notes: Human IgG1 Fc fragment with F243A, V264A, S267E, L328F (EU)
[1]
  Fold Increase in RU vs WT IgG1: 7 fold
[3]
  Fold Improvement in KD vs WT IgG1 rhFcgRIIb: 11 fold
[2]
  Fold Increase in RU vs WT IgG1: 2.4 fold
